Where no end group is shown, it is not given here.
Molecular target: T1, Very late antigen-4 (VLA-4; α4β1 integrin) on multiple myeloma cell lines (human, UniProt P13612 34-1032; P05556 21-798)
T1 construct: whole, on cells; also called VLA-4 receptor
Test: peptide screen of Example 1 (FITC-labeled peptides on MM cells, flow cytometry)

T1 sequence (P13612 34-1032, chain 1 of 2): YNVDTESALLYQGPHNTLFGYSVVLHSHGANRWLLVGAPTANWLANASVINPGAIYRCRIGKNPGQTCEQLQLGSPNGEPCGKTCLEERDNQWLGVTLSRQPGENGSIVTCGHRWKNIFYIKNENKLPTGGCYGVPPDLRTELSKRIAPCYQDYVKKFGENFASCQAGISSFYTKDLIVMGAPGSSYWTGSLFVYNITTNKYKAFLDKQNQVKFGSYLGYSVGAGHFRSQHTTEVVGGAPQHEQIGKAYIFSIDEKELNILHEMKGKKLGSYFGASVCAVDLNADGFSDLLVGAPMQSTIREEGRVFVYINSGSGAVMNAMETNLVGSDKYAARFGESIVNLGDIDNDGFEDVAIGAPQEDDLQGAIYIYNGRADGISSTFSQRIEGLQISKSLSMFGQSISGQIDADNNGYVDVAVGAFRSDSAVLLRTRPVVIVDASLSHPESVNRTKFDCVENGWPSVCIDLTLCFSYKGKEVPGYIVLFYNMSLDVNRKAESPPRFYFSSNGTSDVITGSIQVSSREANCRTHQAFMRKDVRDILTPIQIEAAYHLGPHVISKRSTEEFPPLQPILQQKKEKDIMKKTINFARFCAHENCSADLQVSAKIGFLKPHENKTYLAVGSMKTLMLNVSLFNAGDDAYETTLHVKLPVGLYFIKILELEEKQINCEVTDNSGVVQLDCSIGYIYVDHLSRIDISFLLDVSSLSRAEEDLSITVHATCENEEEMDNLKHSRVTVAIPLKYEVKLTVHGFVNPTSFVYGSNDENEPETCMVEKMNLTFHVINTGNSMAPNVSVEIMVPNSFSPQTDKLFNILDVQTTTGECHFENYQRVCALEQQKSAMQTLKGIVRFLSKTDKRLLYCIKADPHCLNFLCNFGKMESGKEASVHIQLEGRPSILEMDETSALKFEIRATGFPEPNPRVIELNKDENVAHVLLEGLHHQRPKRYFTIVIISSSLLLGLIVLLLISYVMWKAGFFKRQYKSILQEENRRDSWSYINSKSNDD
T1 sequence (P05556 21-798, chain 2 of 2): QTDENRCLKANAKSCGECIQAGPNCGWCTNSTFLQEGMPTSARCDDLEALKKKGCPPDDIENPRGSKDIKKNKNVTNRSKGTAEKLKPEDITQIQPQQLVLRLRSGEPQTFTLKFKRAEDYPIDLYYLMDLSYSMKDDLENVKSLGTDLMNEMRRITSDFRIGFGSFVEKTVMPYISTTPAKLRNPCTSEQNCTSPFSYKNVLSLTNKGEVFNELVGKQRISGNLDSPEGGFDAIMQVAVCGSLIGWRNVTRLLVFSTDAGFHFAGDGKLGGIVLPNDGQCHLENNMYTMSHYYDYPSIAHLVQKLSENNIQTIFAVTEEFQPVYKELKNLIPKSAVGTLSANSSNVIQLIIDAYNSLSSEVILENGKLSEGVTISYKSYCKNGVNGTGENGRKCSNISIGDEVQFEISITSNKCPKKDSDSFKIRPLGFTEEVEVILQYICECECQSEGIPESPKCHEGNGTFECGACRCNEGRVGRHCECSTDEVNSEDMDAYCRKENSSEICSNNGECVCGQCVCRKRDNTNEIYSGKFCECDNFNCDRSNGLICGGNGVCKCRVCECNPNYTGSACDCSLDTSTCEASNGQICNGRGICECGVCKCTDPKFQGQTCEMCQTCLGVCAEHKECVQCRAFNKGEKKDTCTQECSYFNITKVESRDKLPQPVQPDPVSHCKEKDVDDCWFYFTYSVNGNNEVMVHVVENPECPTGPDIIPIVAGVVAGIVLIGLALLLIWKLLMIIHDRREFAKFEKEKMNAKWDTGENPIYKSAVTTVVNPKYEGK

binding result: binds
B1: peptide sequence CFLDFP (peptide)
peptide: CFLDFP
modifications: not fully specified (C-terminus); also: FITC-labelled version synthesized for binding assays
notes: The assay for this peptide is not described separately

— patent US20180177810A1 (UNIVERSITY OF NOTRE DAME DU LAC, published 2018)
